Data: PMC4863622

Biological target: human Toll-like receptor 5, V5-tagged (hTLR5-V5) (human) (UniProt O60602)
Chain of UniProt O60602 (O60602 21-858): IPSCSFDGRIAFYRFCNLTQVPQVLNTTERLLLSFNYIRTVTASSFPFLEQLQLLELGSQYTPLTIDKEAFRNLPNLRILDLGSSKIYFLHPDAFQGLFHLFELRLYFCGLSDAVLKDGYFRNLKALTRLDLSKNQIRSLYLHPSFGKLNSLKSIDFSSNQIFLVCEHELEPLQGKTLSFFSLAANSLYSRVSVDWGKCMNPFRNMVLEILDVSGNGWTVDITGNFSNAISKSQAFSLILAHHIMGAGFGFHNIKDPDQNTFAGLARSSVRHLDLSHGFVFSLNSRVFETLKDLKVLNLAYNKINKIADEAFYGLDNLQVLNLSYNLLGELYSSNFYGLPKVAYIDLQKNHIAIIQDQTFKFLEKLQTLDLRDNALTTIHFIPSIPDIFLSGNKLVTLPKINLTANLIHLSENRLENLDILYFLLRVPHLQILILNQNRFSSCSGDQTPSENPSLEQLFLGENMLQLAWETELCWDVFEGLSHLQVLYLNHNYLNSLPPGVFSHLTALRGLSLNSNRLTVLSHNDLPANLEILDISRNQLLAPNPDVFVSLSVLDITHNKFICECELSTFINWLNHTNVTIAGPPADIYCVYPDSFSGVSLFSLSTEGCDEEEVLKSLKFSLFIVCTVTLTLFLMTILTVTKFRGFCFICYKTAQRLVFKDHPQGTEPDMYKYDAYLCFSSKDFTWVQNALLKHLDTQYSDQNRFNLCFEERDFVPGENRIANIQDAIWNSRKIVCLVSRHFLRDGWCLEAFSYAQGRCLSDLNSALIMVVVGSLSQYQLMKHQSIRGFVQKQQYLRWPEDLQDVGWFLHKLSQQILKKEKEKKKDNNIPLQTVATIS

“Campylobacter jejuni FlaC, recombinant 6×His-FlaC–6×His (from UniProt P96747 1-249) (natural protein)” showed an IL-10 mRNA (quantitative RT-PCR) in hTLR5-transfected HEK293 cells, against the hTLR5 control (data not shown) of 6 fold.
